Laboratory results reported in publication PMC3005950.

What was measured:
[1] = molecular target: IL-7Ralpha ECD (Homo sapiens) (UniProt P16871); conditions: cited from earlier work
[2] = molecular target: IL-7 receptor alpha chain extracellular domain, glycosylated, IL-7Ralpha (CHO) (UniProt P16871); experiment: SPR; conditions: pH 7.4, 298 K, 10 mM HEPES (pH 7.4)
[3] = molecular target: IL-7 receptor alpha chain extracellular domain, nonglycosylated, IL-7Ralpha (EC) (UniProt P16871); experiment: SPR; conditions: pH 7.4, 298 K, 10 mM HEPES (pH 7.4)

Substance | Kd [1] [nM] | ΔG^o ([2]; 50 mM NaCl) [kcal/mol] | ΔG^o ([2]; 1 M NaCl) [kcal/mol] | ΔG^o ([3]; 50 mM NaCl) [kcal/mol] | k−1 ([3]; 300 mM NaCl) [s⁻¹] | ΔG^o ([3]; 300 mM NaCl) [kcal/mol]
IL-7 (from UniProt P13232) | 60 | – | – | – | – | –
Interleukin-7 (IL-7) | – | -11.8 | -8.33 | -7.72 | 0.121 | -4.68
